Substrate: CC(=O)Nc1ccn([C@H]2C[C@H](O)[C@@H](CO)O2)c(=O)n1
Assay: purified protein
Assay type: biochemical, Escherichia coli
Conditions: 10 mM Tris-HCl pH 8.0, 22 °C, free enzyme

B1: YqfB (free wild-type YqfB, amidohydrolase YqfB) (Escherichia coli K-12) (protein)
chain: MQPNDITFFQRFQDDILAGRKTITIRDESESHFKTGDVLRVGRFEDDGYFCTIEVTATSTVTLDTLTEKHAEQENMTLTELKKVIADIYPGQTQFYVIEFKCL
notes: free wild-type YqfB
Km: (4.9 ± 0.04) × 10^−4 M
kcat: 113 ± 1 s⁻¹
kcat/Km: 230000 M⁻¹ s⁻¹

From PMC8618960, “Functionalized Protein Nanotubes Based on the Bacteriophage vB_KleM-RaK2 Tail Sheath Protein” (Nanomaterials, 2021)
